The results in this text go back to patent US10513540B2, “Modulation of the immune response” (THE BRIGHAM AND WOMEN'S HOSPITAL, INC., priority 2012, dated 2019).

One assay deals with CD4+T-cells. In words: In vitro re-stimulation of CD4+ T-cells from SEB-immunized mice, TIM3 expression by FACS. The format is cell-based, mouse. For orientation: Flow cytometry measures light scatter and fluorescence of single cells or particles in a stream.
A further assay concerns the target T1, TIM3 (Mus musculus, UniProt Q8VIM0).
T1 construct: expressed in transfected cells; also crossed to Ceacam1-/-), with the transgene under the human CD2 promoter
The assay is described as follows: Staining of primary T cells with mouse CEACAM1 N-domain Fc fusion protein with or without blocking antibody (FIG. 9). The format is binding. The note with it: primary naive T cells of TIM3 Tg mice. From the text: Primary naïve T cells were isolated from B6 (WT) mice with transgenic (Tg) overexpression of TIM3 in T cells, wherein TIM3 is controlled by the human CD2 promotor, and TIM3 Tg mice crossed to […] (knockout) or […]. Primary T cells were stained with a mouse N-domain as an Fc fusion protein in the presence or absence of varying concentrations of a TIM3 specific monoclonal antibody, 2C12, to block binding. *, P<0.05; **, P<0.01

The next assay deals with CD4+Vβ8+ T cells. The note with it: SEB treatment in presence or absence of fusion protein.
The subject of another assay is TIM3 on primary T cells. The assay is described as follows: In vivo administration of N-CEACAM1-Fc, then in vitro stimulation of lymph node cells with anti-CD3 or SEB (FIGS. 10A-10B). Also on record: species or system mouse. The conditions noted are these: 100 μg intraperitoneally, lymph nodes at 10 days.

T1 sequence (Q8VIM0 20-281): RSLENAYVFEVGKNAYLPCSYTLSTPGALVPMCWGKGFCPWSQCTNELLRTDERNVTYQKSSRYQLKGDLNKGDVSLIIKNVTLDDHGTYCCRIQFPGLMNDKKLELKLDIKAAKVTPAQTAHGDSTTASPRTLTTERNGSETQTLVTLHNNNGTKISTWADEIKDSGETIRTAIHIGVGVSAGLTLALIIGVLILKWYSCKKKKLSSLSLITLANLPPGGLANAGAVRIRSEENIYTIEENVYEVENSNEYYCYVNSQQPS

B1: CEACAM1-Fc fusion protein: mouse CEACAM1 N-domain as an Fc fusion protein; Fc for fusion protein is human (protein)
chain: EVTIEAVPPQVAEDNNVLLLVHNLPLALGAFAWYKGNTTAIDKEIARFVPNSNMNFTGQAYSGREIIYSNGSLLFQMITMKDMGVYTLDMTDENYRRTQATVRFHVHP
modifications: left off: a dimerising Fc or GST
notes: mouse CEACAM1 N-domain as an Fc fusion protein; Fc for fusion protein is human
For the molecule B1, the “TIM3 up-regulation in response to SEB re-stimulation (Mean Fluorescence)” value in the assay on CD4+T-cells (SEB-responsive T-cells, CEACAM1 ligation with fusion protein, in vitro re-stimulation) came out at 29%. In addition, the “TIM3 expression on gated CD4+ T-cells” value in the assay with CD4+T-cells (in vitro, 0.5 mg/ml, 48 hours) was “up-regulates TIM-3 in vitro”. Moreover, the “Binding to TIM3 on primary transgenic T cells” value in the assay with TIM3 is recorded as “binds in trans to TIM3”. Besides, the “T cell receptor engagement by SEB (deletion of CD4+Vβ8+ T cells)” value in the assay on CD4+Vβ8+ T cells is “not significantly influenced”. For the same molecule, in the assay on TIM3 on primary T cells, the “Induction of tolerance (proliferation, interferon gamma production)” value was “induce tolerance”.
